Data published in patent US20250011456A1, “ANTIBODIES AGAINST CD14 AND USES THEREOF” (Villanelle Life Science Inc, priority 2023, published 2025).
Values joined by “and” are separate entries in the source; they are usually repeats but may differ in a detail not shown here. Identical values can stand only once.

Columns and labels:
[1] = Mouse weight under anti-CD14-IgG1 dosages of Example 7 (PDX mice); type: in vivo
Description: To evaluate concentrations for the anti-CD14-IgG1 antibody, PDX mice were treated with five different concentrations of the IgG1 antibody over a period of 28 days. For these experiments, drug administration on the PDX mice was performed intravenously on alternating 4 days and 3 days.
The five different concentrations of the anti-CD14-IgG1 antibody tested include 5 mg/kg, 10 mg/kg, 15 mg/kg, 25 mg/kg, and 40 mg/kg. A control regimen was utilized as a comparative example. […] The non-specific IgG1 has no binding affinity to antigen. […] Tumor weight and tumor volume were calculated as described above.

[2] = system: CD14 positive recurrent bladder cancer patient-derived xenograft (PDX); assay: Anti-CD14 IgG1/IgG4 with or without cisplatin, tumor treatment in PDX mice (tumor length, width, volume, tumor weight; Example 6); type: in vivo; settings: for Tumor Length / Tumor Width: IgG1 5 mg/kg i.v. (Ex. 1), PDX mice 1-6
Description: After removing the primary tumor tissue from the patient, the tissue was temporarily placed in a complete culture medium containing RPMI1640 (Gibco Roswell Park Memorial Institute 1640 Media)+PS (penicillin and streptomycin)+10% FBS (Fetal bovine serum). The tissue was then transported to a sterile operating room within an SPF-grade (Specific Pathogen Free) animal facility. The tumor tissue was cut to an appropriate size (5 millimeters (mm) in diameter). Severely immunodeficient NSG (NOD scid gamma mouse) mice were anesthetized using an isoflurane respirator. The tumor was transplanted subcutaneously into the right rib area through surgery. When the tumor volume reached 1 cm^3, it was passaged following the same procedure, and after expanding for three generations, the tumor became stable for use in formal experiments. During the experiment, passaging and expansion were performed as needed. When the tumor volume reached 100 mm^3, the mice were divided into groups according to the experimental requirements and treated with drugs.
The IgG4 tested is the original version of Atibuclimab.
Drug administration on the PDX mice was performed intravenously.

[3] = biological target: T1, human CD14 antigen (B294801, histidine tagged) (Homo sapiens, UniProt P08571); assay: Biacore 8K kinetic and affinity test of antibodies without PTM sites (Example 9); type: binding; settings: Biacore 8K, analyte B294801 0.1953125-25 nM, capture conc. 1 μg/mL
T1 construct: His; purchased Shanghai BaiYing Biotechnology Co., Ltd B294801 (Batch number 20200518A22)
T1 sequence (P08571 20-345): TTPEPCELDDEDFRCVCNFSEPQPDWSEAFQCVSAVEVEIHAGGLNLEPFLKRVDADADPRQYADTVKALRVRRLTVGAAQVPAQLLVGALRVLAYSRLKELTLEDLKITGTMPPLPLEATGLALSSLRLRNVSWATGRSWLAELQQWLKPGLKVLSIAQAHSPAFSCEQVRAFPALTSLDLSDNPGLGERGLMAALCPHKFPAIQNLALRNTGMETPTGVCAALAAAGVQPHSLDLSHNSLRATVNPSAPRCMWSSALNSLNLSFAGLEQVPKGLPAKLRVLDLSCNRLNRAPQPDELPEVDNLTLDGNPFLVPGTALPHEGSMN
Description: Experimental reagents and consumables included cell culture fluid, electroporation buffer, CHO cells, 1 mL electroporation cuvette, Protein A chip (Cytiva, 29127556), various sizes of shake flasks, and various sizes of pipettes. Main instruments and equipment included a shaker (Taicang Huamei), centrifuge (Baiyang), ultrapure water system (Millipore), constant temperature incubator (BLUE PARD), electroporator, water bath, Biacore 8K (Cytiva), and ELISA system (Molecular Devices).
The antigen used for the binding affinity measurements is B294801. This antigen is a human CD14 antigen that is histidine tagged. D6DD3D001 is a mouse antibody, and MPDDAD001-MPDDAD005 are humanized antibodies. The antibodies are recombinant, human (hFc Tag). Selected parameters of the experimental samples are shown in Table 9-1, with MW referring to molecular weight in kDa.
The Biacore 8K platform was used to test the kinetic and affinity properties of the antibody, operating according to system instructions and indications.
Results of Affinity Detection. The affinity of the six antibodies was measured at saturation concentration. For the experiments, the analyte solution comprises the B294801 antigen with an analyte concentration of 0.1953125 nM, 0.390625 nM, 0.78125 nM, 1.5625 nM, 3.125 nM, 6.25 nM, 12.5 nM, and 25 nM. Change factor is described above.

- Koff [3]: 0.00108 s⁻¹
- kon (1:1 binding) [3]: 1.25e+06 M⁻¹ s⁻¹
B1: D6DD3D001: mouse-derived anti-CD14 IgG1 antibody; VH SEQ ID NO: 1, VL SEQ ID NO: 3, heavy chain SEQ ID NO: 2, light chain SEQ ID NO: 4 (antibody)
heavy: DVQLQQSGPGLVKPSQSLSLTCTVTGYSITSDSAWNWIRQFPGNRLEWMGYISYSGSTSYNPSLKSRISITRDTSKNQFFLQLNSVTTEDTATYYCVRGLRFAYWGQGTLVTVSSPSVFLFPPKPKDTLMISRTPEVTCVVVDVSHEDPEVKFNWYVDGVEVHNAKTKPREEQYNSTYRVVSVLTVLHQDWLNGKEYKCKVSNKALPAPIEKTISKAKGQPREPQVYTLPPSREEMTKNQVSLTCLVKGFYPSDIAVEWESNGQPENNYKTTPPVLDSDGSFFLYSKLTVDKSRWQQGNVFSCSVMHEALHNHYTQKSLSLSPGK
light: DIVLTQSPASLAVSLGQRATISCRASESVDSYVNSFLHWYQQKPGQPPKLLIYRASNLQSGIPARFSGSGSRTDFTLTINPVEADDVATYYCQQSNEDPYTFGGGTKLEIKRTVAAPSVFIFPPSDEQLKSGTASVVCLLNNFYPREAKVQWKVDNALQSGNSQESVTEQDSKDSTYSLSSTLTLSKADYEKHKVYACEVTHQGLSSPVTKSFNRGEC
- Mouse Weight ([1]; Day 28, IgG1 (15 mg/kg), per mouse 1-5, 15 mg/kg): 22.57 g and 21.49 g and 23.11 g and 21.72 g and 23.44 g
- Mouse Weight ([1]; Day 28, IgG1 (25 mg/kg), per mouse 1-5, 25 mg/kg): 22.62 g and 23.62 g and 22.69 g and 21.64 g and 23.4 g
- Mouse Weight ([1]; IgG1 40 mg/kg group, Day 0, individual mice 1-5, 40 mg/kg): 20.64 g and 20.79 g and 20.06 g and 20.43 g and 19.66 g
- Mouse Weight ([1]; IgG1 40 mg/kg group, Day 4, individual mice 1-5, 40 mg/kg): 20.37 g and 20.71 g and 19.79 g and 20.56 g and 20.73 g
- Mouse Weight ([1]; IgG1 40 mg/kg group, Day 7, individual mice 1-5, 40 mg/kg): 20.29 g and 20.01 g and 20.53 g and 21.04 g and 20.66 g
- Mouse Weight ([1]; IgG1 40 mg/kg group, Day 11, individual mice 1-5, 40 mg/kg): 20.49 g and 21.74 g and 20.21 g and 21.3 g and 20.92 g
- Mouse Weight ([1]; IgG1 40 mg/kg group, Day 14, individual mice 1-5, 40 mg/kg): 21.19 g and 20.75 g and 20.83 g and 20.91 g and 20.61 g
- Mouse Weight ([1]; IgG1 40 mg/kg group, Day 18, individual mice 1-5, 40 mg/kg): 21.32 g and 21.28 g and 21.36 g and 20.36 g and 21.14 g
- Mouse Weight ([1]; IgG1 40 mg/kg group, Day 21, individual mice 1-5, 40 mg/kg): 21.75 g and 20.47 g and 21.5 g and 21.64 g and 21.77 g
- Mouse Weight ([1]; IgG1 40 mg/kg group, Day 25, individual mice 1-5, 40 mg/kg): 22.33 g and 21.23 g and 22.07 g and 21.9 g and 22.06 g
- Mouse Weight ([1]; IgG1 40 mg/kg group, Day 28, individual mice 1-5, 40 mg/kg): 23.59 g and 23.7 g and 22.4 g and 21.39 g and 22.91 g
- Tumor Length ([2]; Day 0, 5 mg/kg): 5.49 mm and 6.47 mm and 6.35 mm and 7.09 mm and 6.67 mm and 6.45 mm
- Tumor Width ([2]; Day 0, 5 mg/kg): 4.68 mm and 5.9 mm and 5.17 mm and 4.77 mm and 5.25 mm and 5.24 mm
- Tumor Length ([2]; Day 4, 5 mg/kg): 7.07 mm and 6.57 mm and 5.62 mm and 7.08 mm and 6.02 mm and 6.24 mm
- Tumor Width ([2]; Day 4, 5 mg/kg): 5.98 mm and 5.95 mm and 5.01 mm and 5.53 mm and 5.58 mm and 6.18 mm
- Tumor Length ([2]; Day 7, 5 mg/kg): 7.09 mm and 6.9 mm and 6.93 mm and 6.25 mm and 6.83 mm and 8.42 mm
- Tumor Width ([2]; Day 7, 5 mg/kg): 5.61 mm and 6.26 mm and 6.41 mm and 5.39 mm and 6.72 mm and 6.39 mm
- Tumor Length ([2]; Day 11, 5 mg/kg): 7.21 mm and 8.38 mm and 8.42 mm and 8.88 mm and 7.93 mm and 6.52 mm
- Tumor Width ([2]; Day 11, 5 mg/kg): 5.85 mm and 6.91 mm and 7.5 mm and 7.03 mm and 6.5 mm and 5.39 mm
- Tumor Length ([2]; Day 14, 5 mg/kg): 8.71 mm and 8.88 mm and 8.53 mm and 8.28 mm and 9.34 mm and 8.3 mm
- Tumor Width ([2]; Day 14, 5 mg/kg): 7.05 mm and 6.51 mm and 7.95 mm and 7.99 mm and 8.34 mm and 8.05 mm
- Tumor Length ([2]; Day 18, 5 mg/kg): 8.97 mm and 8.58 mm and 10.62 mm and 9.13 mm and 10.97 mm and 10.6 mm
- Tumor Width ([2]; Day 18, 5 mg/kg): 8.41 mm and 8.21 mm and 9.09 mm and 8.09 mm and 8.03 mm and 8.83 mm
- Tumor Length ([2]; Day 21, 5 mg/kg): 10.32 mm and 9.85 mm and 10.71 mm and 10.99 mm and 9.04 mm and 9.86 mm
- Tumor Width ([2]; Day 21, 5 mg/kg): 9.94 mm and 9.85 mm and 8.59 mm and 8.23 mm and 8.97 mm and 9.35 mm
- Tumor Length ([2]; Day 25, 5 mg/kg): 10.94 mm and 11.6 mm and 9.44 mm and 10.91 mm and 11.63 mm and 11.67 mm
- Tumor Width ([2]; Day 25, 5 mg/kg): 10.71 mm and 8.34 mm and 9.23 mm and 9.83 mm and 10.03 mm and 9.39 mm
- Tumor Length ([2]; Day 28, 5 mg/kg): 11.18 mm and 12.43 mm and 12.8 mm and 10.15 mm and 10.49 mm
- Tumor Width ([2]; Day 28, 5 mg/kg): 9.72 mm and 10.02 mm and 9.93 mm and 10.84 mm and 9.98 mm and 9.95 mm
- Tumor weight after 28 days ([2]; IgG1 (5 mg/kg), Ex. 1, per mouse 1-6, 5 mg/kg): 0.645 grams and 0.585 grams and 0.501 grams and 0.618 grams and 0.641 grams and 0.555 grams
- tumor suppression rate ([2]; single anti-CD14-IgG1 5 mg/kg (Ex. 1), after 28 days, compared to the control group): about 50%
